Where a chain is given by its changes, count along the chain named.
B1: Nb10 (VHH)
VHH: QVQLVESGGGLVQTGGSLRLSCAASGLTFSSYNMGWFRQAPGKEREFLGAIWSSGFTYYLDSVKGRFTISRDNAKNTVYLQMDSLKPEDTAVYYCAAARRLLTQAAAVMFNSYDYWGQGTRVTVSS
B2: Nb11 (VHH)
VHH: QVQLVETGGGLVQAGDSLRLACAHSGRTFSTYAMGWFRQAPGKEREFVAAISGSGGTTIYADSVTGRFTISRDNTKNTVYLQMNSLKPEDTAVYSCAASQYYMGSRSTENYNVWGQGTQVTVSS
B3: Nb6 (VHH)
VHH: QLQLVETGGGLVQAGGSLRLSCAASGLIFSSYNMGWFRQAPGKEREFVGAIWSSSFTYLLDSVKGRFTISRDNAKNTVYLQMNSLKPEDTAVYYCAASRRLLTQGSAVSTTSYEYWGQGTQVTVSS
B4: Nb7 (VHH)
VHH: QVQLVESGGGLVQAGGSLRLSCAASGLTFSAYNMGWFRQAPGKEREFVGAIWSSSFTYYLDSLKGRFTISRDNTKNTVYLQMNSLKPEDTAVYYCAAARRLLTQAGAVLTTSYEYWGQGTQVTVSS
B5: Nb8 (VHH)
VHH: QVQLVETGGGLVQAGGSLRLSCAASGRAFSSYGMGWFRQAPGKEREFVAAVSGSGATTIYADSVKGRFTISRDNAVNTVYLHMNDLKPDDTAVYYCAVGKYYSGSRQSHNYDYWGQGTQVTVSS
notes: also called nanobody 8; source: E. coli BL21, purified (Ni2+ beads, SEC); not shown: His6, C-terminal, kept
B6: Nb9 (VHH)
VHH: QLQLVESGGGVVQAGGSLRLSCAASGRTFSSYGMGWFRQAPGKEREFASAISGSGGSTYYADSVKGRFTISRDNAKNTVYLQMNSLKPEDTAVYYCARSRYYSGGRSLLEYDYWGQGTQVTVSS
notes: also called nanobody 9; source: E. coli BL21, purified (Ni2+ beads, SEC); not shown: His6, C-terminal, kept
B7: Nb1 (VHH)
VHH: QVQLVESGGGLVQAGDSLRLSCAASGRTFSNYAMGWFRQAPGKEREFVAAISGGGGTTYYSDSVKGRFTISRDNAKSTVYLQMNSLKPEDTAVYFCASSTYYMPSRAADTYTYWGQGTQVTVSS
notes: also called nanobody 1; source: E. coli BL21, purified (Ni2+ beads, SEC); not shown: His6, C-terminal, kept
B8: Nb2 (VHH)
VHH: B7 VHH with V2L, S7T
notes: also called nanobody 2; source: E. coli BL21, purified (Ni2+ beads, SEC); not shown: His6, C-terminal, kept
B9: Nb4 (VHH)
VHH: QVQLVESGGGVVQTGGSLRLSCAASGRTFSTYGMGWFRQAPGKEREFVAAISGSGGMTYYGDPVKGRFTISRDNAVNTVYLQMNNLKPEDTAVYICAVGAYYSGGSRAQNYEYWGQGTQVTVSS
notes: also called nanobody 4; source: E. coli BL21, purified (Ni2+ beads, SEC); not shown: His6, C-terminal, kept
B10: Nb5 (VHH)
VHH: B9 VHH with P88A, I95V
notes: also called nanobody 5; source: E. coli BL21, purified (Ni2+ beads, SEC); not shown: His6, C-terminal, kept

biological target: T1, zinc-transporting PIB-ATPase ZntA from Shigella sonnei (Shigella sonnei (UniProt Q3YW59, strain …, UniProt Q3YW59)); test: not given; settings: not given
T1 sequence (Q3YW59 whole entry, one chain of several): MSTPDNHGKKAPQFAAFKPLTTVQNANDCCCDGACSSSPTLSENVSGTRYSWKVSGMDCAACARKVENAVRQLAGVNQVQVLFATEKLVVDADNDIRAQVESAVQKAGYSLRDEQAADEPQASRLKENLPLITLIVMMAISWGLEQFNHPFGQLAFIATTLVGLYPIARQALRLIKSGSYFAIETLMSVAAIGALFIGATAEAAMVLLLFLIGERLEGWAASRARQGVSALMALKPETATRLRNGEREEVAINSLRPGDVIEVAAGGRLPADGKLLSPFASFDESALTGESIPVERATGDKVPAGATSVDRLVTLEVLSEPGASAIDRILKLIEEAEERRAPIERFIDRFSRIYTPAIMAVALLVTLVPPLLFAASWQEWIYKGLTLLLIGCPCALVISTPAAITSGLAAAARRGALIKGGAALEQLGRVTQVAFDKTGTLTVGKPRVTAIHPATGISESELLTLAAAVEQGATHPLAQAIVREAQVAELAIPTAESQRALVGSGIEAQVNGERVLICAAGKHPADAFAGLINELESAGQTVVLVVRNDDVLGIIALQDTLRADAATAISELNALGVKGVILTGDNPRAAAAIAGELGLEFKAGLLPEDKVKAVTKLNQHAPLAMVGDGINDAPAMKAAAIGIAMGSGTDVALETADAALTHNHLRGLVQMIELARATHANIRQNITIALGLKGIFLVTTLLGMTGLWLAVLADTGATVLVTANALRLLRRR

Row | Binder | binding result
1 | B1 | binds
2 | B2 | binds
3 | B3 | binds
4 | B4 | binds

biological target: T1, zinc-transporting PIB-ATPase ZntA from …; test: SEC; settings: both partners purified

Row | Binder | binding result
5 | B5 | binds
6 | B6 | binds
7 | B7 | binds
8 | B8 | binds
9 | B9 | binds
10 | B10 | binds
